Data as given in article PMC7902612, “A synergetic effect of BARD1 mutations on tumorigenesis” (Nature Communications, 2021).

Molecular target: T1, GST-BRCA1-N (N-terminal of BRCA1, 1-147 aa) (human, UniProt P38398 1-147)
T1 construct: BRCA1, human, N-terminal residues 1-147; Cloned into pGEX-4T-1, which as far as I know puts GST at the N-terminus; also called recombinant BRCA1-N
Experiment: MST; RED-NHS-labelled GST-BARD1-N or GST-BARD1^P24S-N at constant concentration (10-50 nM), twofold serial dilutions of GST-BRCA1-N; 50 mM Tris-HCl pH 7.4, 150 mM NaCl, 10 mM MgCl2, 0.05% Tween 20; 15 min at room temperature; Monolith NT.115, 20% and 40% MST power
Details: both partners purified

T1 sequence (P38398 1-147): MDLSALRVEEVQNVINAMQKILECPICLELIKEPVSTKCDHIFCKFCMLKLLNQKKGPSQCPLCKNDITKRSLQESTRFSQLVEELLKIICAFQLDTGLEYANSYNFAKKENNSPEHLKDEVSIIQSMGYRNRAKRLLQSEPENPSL

B1: GST-BARD1-N (N-terminal of BARD1, 1-142 aa) (domain or fragment, human, UniProt Q99728 1-142, looked up)
chain: MPDNRQPRNRQPRIRSGNEPRSAPAMEPDGRGAWAHSRAALDRLEKLLRCSRCTNILREPVCLGGCEHIFCSNCVSDCIGTGCPVCYTPAWIQDLKINRQLDSMIQLCSKLRNLLHDNELSDLKEDKPRKSLFNDAGNKKNS
modifications: fluorescent label from the RED-NHS protein labeling kit (NanoTemper)
notes: BRCA1-associated RING-domain protein 1 (BARD1), human, N-terminal residues 1-142; Cloned into pGEX-4T-1, which as far as I know puts GST at the N-terminus
For B1, the Kd was 890 nM.
